B1: Autophagy-related protein 19 (Saccharomyces cerevisiae), P35193 (parent)
chain: MNNSKTNQQMNTSMGYPLTVYDECNKFQLIVPTLDANIMLWCIGQLSLLNDSNGCKHLFWQPNDKSNVRILLNNYDYGHLFKYLQCQRKCSVYIGEGTLKKYNLTISTSFDNFLDLTPSEEKESLCREDAHEDPVSPKAGSEEEISPNSTSNVVVSRECLDNFMKQLLKLEESLNKLELEQKVTNKEPNHRISGTIDIPEDRSELVNFFTELKTVKQLEDVFQRYHDYERLSQECDSKTEIASDHSKKETKIEVEPPNERSLQITMNQRDNSLYFQLFNNTNSVLAGNCKLKFTDAGDKPTTQIIDMGPHEIGIKEYKEYRYFPYALDLEAGSTIEIENQYGEVIFLGKYGSSPMINLRPPSRLSAESLQASQEPFYSFQIDTLPELDDSSIISTSISLSYDGDDNEKALTWEEL
partner: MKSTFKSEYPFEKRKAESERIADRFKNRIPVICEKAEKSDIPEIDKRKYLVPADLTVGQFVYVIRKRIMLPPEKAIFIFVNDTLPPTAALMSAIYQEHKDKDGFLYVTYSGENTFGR
B2: Autophagy-related protein 34 (Saccharomyces cerevisiae), Q12292 (parent)
chain: MKIAVETTLFDFFVIDQFKKSTFSAPNTKVDTIKGCINKFIEQFNVYDEQHIFWQPPGKSNVRLLSNANDFGQLGNFLHKKIKCNIFIGEEALRKYDLNICGPYDKFVENSDPSVKKVVNRDDVMLSRKCLNIISEQLSILEKSISKAQNQVLQSSEVEGKKCIILPEDKPELIKFFSKFETSVQLQEVYEGYKVYEKLLQKFGGQKKRMESFLNENTPMSGAEAIKQINISEELKEKGERLTTPNDPLLHVEVSNEDNSLHFILYNKTNIIIPGNCTFEFSSQISEVFSIKMGPHEIGIKGQKELWFFPSLPTPLSNYTMKVVNQDGETILVGKCADSNEITLKSPLASFSTGSFQTGSFHTLQDPTNVFRADALSSPDESSIMSTPFLGETDEVYNSGSTLSRPFTWEEI
partner: B1 partner

Variants of: B1
Details: with atg8_yeast ATG8, P38182

Variant	effect of a mutation on the interaction
F379A;W412A	decreasing interaction strength
F376A;F379A;P385A;E386A;W412A	disrupting interaction strength
P385A;E386A;W412A	decreasing interaction strength

Variants of: B1
Details: with atg8_yeast ATG8, P38182
Remark: another data set of the same source

Variant	effect of a mutation on the interaction
W412A	decreasing interaction strength

Variants of: B1
Details: with atg8_yeast ATG8, P38182
Remark: another data set of the same source

Variant	effect of a mutation on the interaction
F376A;F379A	decreasing interaction strength
F376A;F379A;P385A;E386A;W412A	decreasing interaction strength
F376A;F379A;W412A	decreasing interaction strength

Variants of: B1
Details: with atg8_yeast ATG8, P38182
Remark: another data set of the same source

Variant	effect of a mutation on the interaction
F376A;F379A;W412A	disrupting interaction strength

Variants of: B2
Details: with atg8_yeast ATG8, P38182

Variant	effect of a mutation on the interaction
W409A	disrupting interaction strength

Source: IntAct's records for PubMed 24705553
